Experiment [1] concerns K562 cells. The experiment is described as follows: RT-PCR of CD40 splice forms in K562 cells treated with etoposide. The note with it: 20 μM Etoposide, various time intervals. It is filed as cell-based. The method, then:
Samples of RT reactions of K562 treated with etoposide were prepared and used for PCR using CD40 primers (35 cycles). Etoposide (Sigma) is known as double-stranded DNA breakage and apoptosis inducing agent. The RT reactions were checked before the analysis to exclude possible genomic contamination and to ensure similar cDNA concentrations in the different samples, using quantitation with GAPDH (not shown).

For experiment [2], the system named is K562 cells. The experiment is described as follows: Caspase activation in K562 cells (immunoblot with anti cleaved PARP antibody). It is filed as cell-based. As to conditions: 25 μM etoposide, 17 hrs. The method, then:
For this purpose K562 cells were treated with 25 μM etoposide for 17 hrs, and the activation of caspases, one of the hallmarks of apoptosis, was measured. To measure caspase activation, the cells were lysed, immunoblotted and PARP, a known substrate for caspase-3, was probed using anti cleaved PARP antibody (Cell Signaling, Beverly, Mass.).

For experiment [3], the system named is RANTES secretion via the CD40-CD154 pathway. The experiment is described as follows: RANTES cell assay (HPMC cells overlaid with mouse fibroblasts/CD154-mouse fibroblasts, ELISA RANTES test). It is filed as cell-based, human. The note with it: for level of cytokine RANTES secretion (summary statement): human peritoneal cells plus mouse fibroblasts expressing CD154 ligand; for dose response of inhibition of RANTES secretion (in words): FIG. 18G: CD154 ligand present, high cell number 10,000. The method, then:
Skipping 5 protein was administered to a mixture of human peritoneal cells (HPMC cells), which express the CD40 receptor on their membrane, and mouse fibroblasts transfected to express the CD154 ligand. The ability of the soluble skipping 5 protein to compete with the CD40 membrane-bound receptor for binding to the CD154 ligand presented on the mouse fibroblasts was thus tested. This ability was measured by determining the resultant level of the cytokine RANTES, which is a cytokine indicative of T cell activation, as compared to when a positive control of interferon (which raises the level of RANTES via a CD40-related pathway) was administered alone.
HPMC cells were grown in M199+10% FCS (Biological Industries, Bet Ha'emek, Israel), trypsinized (using trypsine from Biological Industries, Bet Ha'emek, Israel, 5 ml/75 cm^2 cell culture flask), and recultured into 96-well plates. Cell should reach at least 80% confluence before further use.
Mouse fibroblasts/CD154-mouse fibroblasts were grown in DMEM+10% FCS (Biological Industries). Cells were trypsinized, pelleted (5 min 500 at rpm), counted (½ vol cells+½ vol trypan blue) and resuspended in M199+10% FCS. Cells were then diluted (10,000 or 5000 cells per ml).
CD40 proteins/antibodies were prepared in various concentrations in PBS according to the desired dose response/treatment (volume of 1 reaction should not exceed 20 microliters), followed by adding the same volume of PBS to the negative and positive controls.
The CD40 protein was added to 100 microliters of mouse fibroblasts or CD154-mouse fibroblasts in eppendorf tubes (final volume dependant on duplicates/triplicates) and incubated at R.T for 1 h at 200 rpm (rotation during incubation)
During this incubation time the HPMC were prepared, by removing medium and washing cells twice, and adding 100 microliters of fresh M199+10% FCS with or without 100 U/ml IFN (PeproTech, 50U/μl).
The CD40 L cells mixtures were overlaid on the HPMC (110 ul/well) and incubated O.N (at 37° C., 5% CO2).
100 microliters were removed from supernatant and placed into new 96 well plates, followed by diluting the samples 1/10 in M199+10% FCS and using diluted samples for the ELISA RANTES test.
The cells in the experiment plate were checked for viability.
A general note: An ELISA detects its analyte on a solid surface through an enzyme-linked reagent.

Experiment [4] addresses T1, human CD154 (Homo sapiens, UniProt P29965).
T1 construct: stably transfected with full length human CD154; expressed in transfected cells; host or cells: mouse fibroblasts, stably transfected
T1 sequence (P29965 1-261): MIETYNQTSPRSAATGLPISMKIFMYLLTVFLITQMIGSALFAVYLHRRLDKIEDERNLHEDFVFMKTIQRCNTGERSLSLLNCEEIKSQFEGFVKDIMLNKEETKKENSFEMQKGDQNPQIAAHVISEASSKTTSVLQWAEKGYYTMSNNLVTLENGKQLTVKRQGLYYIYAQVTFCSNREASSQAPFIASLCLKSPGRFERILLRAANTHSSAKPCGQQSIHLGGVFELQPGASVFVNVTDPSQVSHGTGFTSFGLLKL
The experiment is described as follows: FACS analysis of sCD40 binding to mouse fibroblasts expressing human CD154. As to conditions: Fc tagged proteins, 1-50 μg/ml, 4° C., 60 min; mouse fibroblasts stably transfected with full length human CD154. The procedure:
10^6 mouse fibroblasts (stably transfected with full length human CD154) were incubated with either the known CD40 soluble variant, sCD40 WT (panel C, FIG. 17), the variant CD40-skipping 6 (panel A, FIG. 17) or the variant CD40-skipping 5 (panel B, FIG. 17). All CD40 variants were Fc tagged, and present at a concentration of 1-50 μg/ml at 4° C. for 60 min in total volume of 100 μl (0.5×10^6 cells). […] Analysis was performed using BD FACsCalibur. Panel E in FIG. 17 summarizes the mean fluorescence shift, as plotted versus various concentrations of CD40 protein.
Briefly, the FACS protocol was performed as follows. Mouse fibroblasts were trypsinized, and washed twice in PBS; cells were centrifuged at 1500 rpm for 10 min between washes. Next, the cells were re-suspended in FACS buffer (0.2% BSA and 0.02% sodium azide diluted 1/10 in PBS) to give 5-10×10^6 cells mL. Cells were placed in FACS test-tubes at a volume of 100 or 200 microliters per tube. […]
Next, 2 μL (1:50) anti CD40 non-blocking antibody (EA-5 mouse IgG1 PE-conjugated, obtained from Calbiochem) or controls (same isotype PE conjugated) were added to the tubes, and incubated for 30 min at 4° C. […] Next, 0.5 mL PBS was added to tubes, which were read in a FACS machine (BD FACSCalibur). […]
For this experiment, the controls included performing parallel assays with: mouse fibroblasts not expressing hCD154; non-relevant Fc (EA5, which is a mouse anti-CD40 antibody, see Malmborg Hager et al., Scandinavian J. 1 mm. 57:517-524 (2003) or non-Fc tagged proteins or purification mock; known CD40 soluble protein; secondary Ab only and isotype control only (isotype refers to an antibody control, featuring the same type of antibody but one which is not able to bind CD40). The axes are as follows: Y=cell counts; X=log scale of fluorescence intensity. M=A marker placed above the peak of positively stained cells on the histogram plot which provide the statistics of the stained population.
A general note: Flow cytometry measures light scatter and fluorescence of single cells or particles in a stream.

Setting [5] is: FIG. 18C: HPMC cells plus mouse fibroblasts expressing CD154, with interferon.
The mark [6] stands for this setting: FIG. 18E: fixed concentration 200 nM sCD40 protein, varying number of CD154+ mouse fibroblasts.
Setting [7] is: FIGS. 18A-C, complete system with INF and CD154 mouse fibroblasts.

Entries after “also recorded” stand apart in the source; their conditions may differ.

Consider `COc1cc([C@@H]2c3cc4c(cc3[C@@H](O[C@@H]3O[C@@H]5CO[C@@H](C)O[C@H]5[C@H](O)[C@H]3O)[C@H]3COC(=O)[C@H]23)OCO4)cc(OC)c1O` [Etoposide], for which, in experiment [1], the “expression levels of secreted CD40 splice variant skipping exon 5 (RT-PCR)” value is reported as “increase” and the “known wild type CD40 expression levels (RT-PCR)” value is listed as “decrease”. In addition, in experiment [2], the “cleaved PARP (caspase activation)” value is listed as “appearance of a band in the expected size”.

As for “known truncation product derived from known CD40: known CD40 extracellular domain without transmembrane domain, a simple truncation product of known CD40 [reference compound]”, the “level of cytokine RANTES secretion (summary statement)” value in experiment [3] is “decreased level”.

As to “WT-sCD40-Fc: known CD40 extracellular domain (soluble, truncated) fused to Fc of IgG1 [reference compound]”, in experiment [4], the “sCD40 binding to membrane CD154 (FACS)” value is reported as “significant binding”. For the same molecule, in experiment [3] (setting [5]), the Rantes level result is “approximately 1000 pg/ml” and the “inhibition of Rantes level” value was determined as 50%. Further, the “inhibition of RANTES secretion” value in experiment [3] (setting [6]) is recorded as 40-100%. Besides, the “dose response of inhibition of RANTES secretion (in words)” value (from here on “dose response of inhibition … (in words)”) in experiment [3] is “inhibitory effect”. In experiment [3] (setting [7]), the “effect on RANTES secretion (in words)” value is on record as “inhibitory properties”.

B1: Skipping 5-sCD40-Fc: CD40 skipping exon 5 splice variant fused downstream to the Fc chain of Immunoglobulin IgG1, expressed in baculovirus (protein)
chain: EPPTACREKQYLINSQCCSLCQPGQKLVSDCTEFTETECLPCGESEFLDTWNRETHCHQHKYCDPNLGLRVQQKGTSETDTICTCEEGWHCTSEACESCVLHRSCSPGFGVKQIAVRPKTWLCNRQAQTRLMLSVVPRIG
modifications: left off: a dimerising Fc or GST
notes: CD40 skipping exon 5 splice variant fused downstream to the Fc chain of Immunoglobulin IgG1, expressed in baculovirus
With B1, the “sCD40 binding to membrane CD154 (FACS)” value in experiment [4] is reported as “different properties”. Further, the “effect on RANTES secretion (in words)” value in experiment [3] (setting [6]) is “stimulatory effect”; in experiment [3] (setting [7]) it was “no inhibition”. Further, in experiment [3] (FIGS. 18A and B: HPMC cells only or with untransfected mouse fibroblasts, Interferon dependent), the “effect on RANTES level in the absence of CD154 (in words)” value is “agonistic effect; also recorded: agonistic properties”.

B2: Skip5: soluble CD40 splice variant lacking exon 5, SEQ ID NO:1, unique tail amino acids 136-160 (protein, listed as Homo sapiens)
chain: MVRLPLQCVLWGCLLTAVHPEPPTACREKQYLINSQCCSLCQPGQKLVSDCTEFTETECLPCGESEFLDTWNRETHCHQHKYCDPNLGLRVQQKGTSETDTICTCEEGWHCTSEACESCVLHRSCSPGFGVKQIAVRPKTWLCNRQAQTRLMLSVVPRIG
Consider B2, for which, in experiment [3], the “dose response of inhibition … (in words)” value is listed as “did not cause any inhibition”. Besides, the “level of cytokine RANTES secretion (summary statement)” value is recorded as “increased level” in experiment [3] (listed as CD40 skipping exon 5 variant) and “raise the level of secretion” in experiment [3] (listed as skipping 5).

B3: Skipping 6-sCD40-Fc: Fc-tagged CD40 skipping exon 6 variant (protein)
chain: EPPTACREKQYLINSQCCSLCQPGQKLVSDCTEFTETECLPCGESEFLDTWNRETHCHQHKYCDPNLGLRVQQKGTSETDTICTCEEGWHCTSEACESCVLHRSCSPGFGVKQIATGVSDTICEPCPVGFFSNVSSAFEKCHPWTRSPGSAESPGGDPHHLRDPVCHPLGAGLYQKGGQEANQ
modifications: left off: a dimerising Fc or GST
notes: Fc-tagged CD40 skipping exon 6 variant
In the case of B3, the “sCD40 binding to membrane CD154 (FACS)” value in experiment [4] was “significant binding”. In experiment [3], the “dose response of inhibition … (in words)” value was “inhibitory effect”.
